Laboratory results reported in US12084521B2, “TLR9 inhibitors to suppress inflammatory response to pathogens” (University Of Maryland, Baltimore, priority 2018, dated 2024).
No end group written: not given here.

Key:
TIRAP TIR = molecular target: T1, TIRAP TIR (Homo sapiens, UniProt P58753); test: FLIM/FRET binding of Cy3-labeled peptides to Cer-fused TIR in HeLa cells; settings: HeLa cells, Cy3-peptide 2.5-40 μM, 1 hour
T1 construct: fused with TLR9 TIR or TIRAP TIR; expressed in transfected cells; host or cells: HeLa
Protocol: Three million HeLa cells were transfected with 10 μg of MyD88-Cer, TIRAP-Cer, TRAM-Cer, TLR2-Cer, TLR4 TIR-Cer, or TLR9 TIR-Cer expression vectors using a Lipofectamine™ 3000 kit from Invitrogen™ per manufacturer recommendations. Twenty four hours later, the transfected cells were trypsinized and reseeded into a 50-well gasket (Grace Bio-Labs™) mounted on a microscope slide at the density 8000 cells/well. The next day, cells were treated with Cy3-9R34-ΔN or Cy3-9R11 for 1 hour and fixed on the slides with a 4% paraformaldehyde solution.
Fluorescence lifetime images were acquired using the Alba V FLIM™ system (ISS™ Inc.). The excitation was from the laser diode 443 nm coupled with scanning module (ISS™) through multiband dichroic filter 443/532/635 nm (Semrock™) to Olympus™ IX71S microscope with objective 20×0.45 NA (UPlan™ Olympus™). Emission was observed through bandpass filter […] (Chroma Technology™) and detected by a photomultiplier H7422-40 (Hamamatsu™). Measurements were performed using frequency domain (FD) and time domain (TD) modalities of the FLIM system. FD FLIM data were acquired using ISS™ A320 FastFLIM™ electronics with n harmonics of 20 MHz laser repetition frequency (n=1, 2, 3, 4, 5, 6). FastFLIM™ was calibrated using fluorescein in buffer pH 8.0 as a standard with a single lifetime of 4.0 ns. TD FLIM images were acquired using time-correlated single photon counting TCSPC™ Model SPC-830 (Becker & Hick™).
Images (256×256 pixels) were acquired with resolution varied in the range ˜0.4-0.7 μm/pixel, using scan speed 1 ms/pixel. To avoid pixel intensity saturation in bright cells and to improve the signal from dim cells, two to five overlapping scans were used for acquisition of FLIM images. Image sizes varied from 100×100 to 180×180 μm to accommodate multiple cells. FLIM data were analyzed with VistaVision™ Suite software (Vista™ v.212 from ISST). Fluorescence lifetime was determined using single- and bi-exponential intensity decay models. Average lifetime images were generated based on pixel-by-pixel analysis using the combined signal of two neighboring pixels in all directions (bin 2=25 pixels). The binning was used to improve the signal for analysis. The average lifetimes were calculated from fitted parameters, decay times τi and amplitudes αi, τa=Σαiτi. The bi-exponential fitting procedure was performed with one lifetime component fixed at 3.1 nsec, which was found common for most images. To calculate the effective FRET efficiency (E), average lifetimes of the donor only images (τD) and donor-acceptor images (τDA) were used, E=1−τDA/τD.
To identify potential binding partners of inhibitory peptides a FRET approach coupled with Fluorescence Lifetime Imaging Microscopy (FLIM) was used. HeLa cells were transiently transfected with an expression vector that encodes a TIR domain fused with Cerulean fluorescent protein (Cer). Cells were treated with various concentrations of a Cy3-labeled inhibitory peptide 48 hours after transfection. Cy3 is a suitable FRET acceptor for Cer fluorescence. A direct molecular interaction of a Cy3-labeled peptide with Cer-fused TIR domain should quench Cer fluorescence, leading to a decreased fluorescence lifetime.
TLR9, MyD88, and TIRAP were selected as potential primary binding partners for Cy3-9R34-ΔN and Cy3-9R11. Cer-fused TLR2 and TLR4 TIR domains, and Cer not fused to a TIR, were used as controls. […] Therefore, the TIRAP-Cer with Cy3-2R9 was used as a positive binding control. Binding of Cy3-labeled CPDPs to Cerulean- (Cer-) labeled TIR domains was tested as follows. Fluorescence Lifetime IMages (FLIM) were made of HeLa cells expressing Cer not fused with a TIR domain (upper row) or fused with TLR9 TIR or TIRAP TIR (middle and bottom rows) and treated with a Cy3-labeled decoy peptide for 1 hour.
A progressive shift of average fluorescence lifetime towards lower values observed with increasing peptide concentrations indicates the binding between donor and acceptor moieties. […]

TLR9 signaling = test: Plasma cytokines after i.p. ODN 1668 in mice; type: in vivo, C57BL/6J mice; settings: peptide 200 nmol/mouse i.p.; ODN 1668 7.86 nmol/mouse
Protocol: (§1) Systemic cytokine levels were measured in plasma samples obtained 1, 3, and 5 hours after intraperitoneal (i.p.) administration of 7.86 nmol (50 μg) of ODN 1668 or 67 nmol of Pam3C per mouse, using ELISA kits from Biolegend™ Inc. CPDP were dissolved in PBS and administered i.p. at the dose of 200 nmol per mouse 1 hour before administration of a TLR agonist. For survival experiments, mice were sensitized to TLR9 agonists by i.p. injection of 20 mg of D-Gal 30 minutes before administration of peptides or PBS. ODN 1668 was used at the doses of 3.93 or 7.86 nmol/mouse (25 or 50 μg/mouse) 1.5 hours after D-Gal. Animal survival was monitored for 50 hours. All agents were administered i.p. in 500 μL volume of PBS. Animals had free access to food and water during the observation period. All animal experiments were conducted in accordance with the national guidelines for the care and use of laboratory animals under a protocol that was approved by the UMB IACUC.
To test the in vivo efficacy and specificity of 9R34-ΔN, C57BL/6J mice were mock-treated or treated i.p. with a single dose of inhibitory or control peptide (200 nmol/mouse) and challenged with TLR9 agonist ODN 1668 (7.86 nmol/mouse) or TLR2/1 agonist Pam3C (67 nmol/mouse) 1 hour later. Plasma concentrations of TNFα and IL-12-p40 were measured 1, 3, and 5 hours after the challenge. Both TLR agonists increased concentrations of TNFα and IL-12-p40 in 1 hour samples from below the limit of detection to about 1.2 and about 6 ng/mL in the case of ODN 1668, and to 0.12 ng/mL and 1 ng/mL after treatment with Pam3C.
Plasma TNFα and IL-12-p40 levels following intraperitioneal administration of ODN 1668 to C57Bl/6J mice in peptide-pretreated and control mice are shown in FIG. 14A and FIG. 14B. Data shown in these figures represent the means±SEM obtained in at least three independent experiments. The statistical significance of changes in cytokine concentrations was determined by a two-way ANOVA test; *p<0.001.

TLR2/1 signaling = test: Plasma cytokines after i.p. Pam3C in mice; type: in vivo, C57BL/6J mice; settings: peptide 200 nmol/mouse i.p.; Pam3C 67 nmol/mouse
Protocol: as §1, with “Animals had free access to food and water during the observation period. All animal experiments were conducted in accordance with the national guidelines for the care and use of laboratory animals under a protocol that was approved by the UMB IACUC.” left out
To test the in vivo efficacy and specificity of 9R34-ΔN, C57BL/6J mice were mock-treated or treated i.p. with a single dose of inhibitory or control peptide (200 nmol/mouse) and challenged with TLR9 agonist ODN 1668 (7.86 nmol/mouse) or TLR2/1 agonist Pam3C (67 nmol/mouse) 1 hour later. Plasma concentrations of TNFα and IL-12-p40 were measured 1, 3, and 5 hours after the challenge. […]
Plasma TNFα and IL-12-p40 levels following intraperitioneal administration of ODN 1668 to C57Bl/6J mice in peptide-pretreated and control mice are shown in FIG. 14A and FIG. 14B. […] The statistical significance of changes in cytokine concentrations was determined by a two-way ANOVA test; *p<0.001.

recombinant TIRAP = recombinant TIRAP (Homo sapiens, UniProt P58753); settings: cited from earlier work
Sequence of recombinant TIRAP (P58753 whole entry): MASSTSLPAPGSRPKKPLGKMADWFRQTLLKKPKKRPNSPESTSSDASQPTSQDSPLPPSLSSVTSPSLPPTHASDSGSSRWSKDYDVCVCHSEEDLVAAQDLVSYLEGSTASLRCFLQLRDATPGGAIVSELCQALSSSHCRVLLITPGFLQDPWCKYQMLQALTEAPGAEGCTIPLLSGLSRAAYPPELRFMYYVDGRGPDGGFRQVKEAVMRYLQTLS

T1 sequence (P58753 84-213 limits assumed): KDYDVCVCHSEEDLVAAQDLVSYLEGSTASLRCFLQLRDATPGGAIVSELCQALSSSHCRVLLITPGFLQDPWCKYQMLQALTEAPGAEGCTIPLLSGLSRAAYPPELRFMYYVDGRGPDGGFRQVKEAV

Sequence: PQRFCKLRKIMNT (also: Cy3 label, position not given here) [Peptide 2R9, reference compound]
- quenching of TIRAP-Cer fluorescence (TIRAP TIR): slightly higher than for the TLR9-9R34-ΔN pair
- ODN 1668-induced plasma cytokine levels (TNFα, IL-12-p40) (TLR9 signaling): suppressed cytokine induction
- Pam3C-induced plasma cytokine levels (TNFα, IL-12-p40) (TLR2/1 signaling): suppressed cytokine induction
- affinity for recombinant TIRAP (recombinant TIRAP): nanomolar
